For one molecule, Kd results are on record in patent US20230159603A1.

The experiment has as its target CD122-Fc (UniProt P14784). Put plainly: SPR, construct immobilised, CD122-Fc flowed, after protease cleavage.

Chain of CD122-Fc (P14784 27-239 limits assumed): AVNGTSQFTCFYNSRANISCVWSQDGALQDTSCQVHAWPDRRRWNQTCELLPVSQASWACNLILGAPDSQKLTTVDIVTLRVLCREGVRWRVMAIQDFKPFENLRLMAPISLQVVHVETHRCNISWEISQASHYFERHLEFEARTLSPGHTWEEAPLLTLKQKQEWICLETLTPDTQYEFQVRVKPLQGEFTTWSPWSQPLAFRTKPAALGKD

B1: AK168 after protease cleavage (Fc fusion, from a related filing)
chain: LYHPSGPAPTSSSTKKTQLQLEHLLLDLQMILNGINNYKNPKLTAMLTAKFAMPKKATELKHLQCLEEALKPLEEVLNLAQSKNFHLRPRDLISNINVIVLELKGSETTFMCEYADETATIVEFLNRWITFAQSIISTLT
Broadly, the Kd is the equilibrium constant for the complex coming apart. The low end stands for a tighter complex, the high end for a looser complex. Molecule B1 gave a Kd of 175 nM.
